Values belong to the substance of their own block, whether it stands above or below them. Ends that are not written are not given here. * marks the point of attachment. Biotin = O=C1N[C@H]2[C@H](CS[C@H]2CCCCC(=O)*)N1
Columns and labels:
Type in all cases: binding
[1] = target: T1, PDZ protein (GST-PDZ fusion) (Homo sapiens, UniProt O15018); test: G' assay (10 uM PL peptide), results of TABLE 7 and TABLE 12; settings: PDZ AIPC, PDZ Domain 1
T1 construct: made in house; host or cells: E. coli (DH5alpha, BL21 or JM109)
Source text: (§1) Each page of TABLE 7 and 12 includes seven columns. The columns in each table are numbered from left to right such that the left-most column in each table is column 1 and the right-most column in each table is column 7. Thus, the first column in each table is labeled “AVC ID”; this column simply lists an internal reference number used to refer to the carboxyl-terminal amino acids of the PL proteins listed in the second column. […] All PL peptides were biotinylated at the amino-terminus and the sequences of these PL peptides are presented in TABLE 8 (see end of specification).
(§2) This column provides the gene name for the PDZ portion of the GST-PDZ fusion that interacts with the PDZ-ligand to the left. For PDZ domain-containing proteins with multiple domains, the domain number is listed to the right of the PDZ (i.e., in column 5 labeled “PDZ Domain”), and indicates the PDZ domain number when numbered from the amino-terminus to the carboxy-terminus.
(§3) The third column labeled “Peptide Optimal Concentration” in the tables is a number reflective of the binding interaction between the PL protein and PDZ protein. […] The column labeled “Protein Optimal Concentration” refers to the protein concentration used to assay PL interaction (in ug/ml); a ‘0’ is indicative of 5 ug/ml protein concentration; any other value represents the concentration (in ug/ml) used to determine the dissociation constant for a given interaction.
(§4) Finally, the seventh column labeled “Classification” is another measure of the level of binding. In particular, it provides an absorbance value at 450 nm which indicates the amount of PL peptide bound to the PDZ protein. The following numerical values have the following meanings: ‘1’—A450 nm 0-1; ‘2’—A450 nm 1-2; ‘3’—A450 nm 2-3; ‘4’—A450 nm 3-4; ‘5’—A450 nm of 4 more than 2× repeated; ‘0’—A450 nm 0, i.e., not found to interact. Thus, higher numbers indicate stronger interactions.
(§5) For convenience, the assay conditions described in this section are referred to as the “G′ assay” and the “G″ assay,” with the specific conditions described in the preceding section on G assays being referred to as the “G^0 assay.” The “G′ assay” is identical to the “G^0 assay” except at step (2) the peptide concentration is 10 uM instead of 20 uM.

[2] = target: T2, PDZ protein (GST-PDZ fusion) (Homo sapiens, UniProt Q13796); test: as above; settings: PDZ hAPXL, PDZ Domain 1
T2 construct: made in house; host or cells: E. coli (DH5alpha, BL21 or JM109)
Source text: as §1, §2, §3, §4, §5

[3] = target: T3, PDZ protein (GST-PDZ fusion) (Homo sapiens, UniProt Q6P0Q8); test: as above
T3 construct: made in house; host or cells: E. coli (DH5alpha, BL21 or JM109)
Source text: as §1, §2, §3, §4, §5

[4] = target: T4, PDZ protein (GST-PDZ fusion) (Homo sapiens, UniProt O14907); test: as above; settings: PDZ TIP1, PDZ Domain 1
T4 construct: made in house; host or cells: E. coli (DH5alpha, BL21 or JM109)
T4 sequence (O14907 1-124): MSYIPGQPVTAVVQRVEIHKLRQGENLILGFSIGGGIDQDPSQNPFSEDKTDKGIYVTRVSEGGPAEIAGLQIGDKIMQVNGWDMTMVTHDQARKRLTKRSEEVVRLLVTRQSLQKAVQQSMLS
Source text: as §1, §2, §3, §4, §5

[5] = tested on: PDZ protein (GST-PDZ fusion); test: as above
Source text: as §1, §2, §3, §4, §5

[6] = target: T5, PDZ protein (GST-PDZ fusion) (Homo sapiens, UniProt Q9NZN5); test: as above; settings: PDZ KIAA0382, PDZ Domain 1
T5 construct: made in house; host or cells: E. coli (DH5alpha, BL21 or JM109)
Source text: as §1, §2, §3, §4, §5

DLG-1 = target: T6, DLG-1 (Homo sapiens, UniProt Q12959); test: G assay competition of short unlabeled peptides with biotinylated 20-mers (Example 6, TABLE 6); settings: 100 = no competitor
T6 construct: protein spans from amino terminal end of first PDZ domain to carboxy-terminal end of third PDZ domain in frame with GST in vector; made in house; host or cells: E. coli DH5alpha
Source text: (§6) The potential for unlabeled 8-mers and 3-mers to compete for binding with biotinylated 20-mers to PDZ domains was examined. Interactions between a PDZ domain and two or more biotinylated peptides mimicking PDZ ligands identified through the ‘G Assay’ were used as model interactions. Short, 3 or 8 amino acid, unlabeled peptides were synthesized by standard techniques and used at variable concentrations with a set concentration of biotinylated 20-mer. Ability of both the 3-mer and 8-mer to inhibit longer peptide binding was observed, making PDZ:PL interactions an attractive target for design of small molecule or peptide therapeutics.
(§7) Peptides representing the C-terminal 3, 8 or 20 amino acids of a PDZ ligand were synthesized by standard FMOC chemistry and biotinylated if not used as an unlabeled competitor. Peptides three amino acids in length were acetylated to more properly mimic the peptide bond without introducing an amino-terminal charged group. Peptides were purified by reverse phase high performance liquid chromatography (HPLC) using a Vydac 218TP C18 Reversed Phase column having the dimensions of 10*25 mm, 5 um. Approximately 40 mg of peptide was dissolved in 2.0 ml of and aqueous solution of 49.9% acetonitrile and 0.1% Tri-Fluoro acetic acid (TFA). This solution was then injected into the HPLC machine through a […] syringe filter (Millipore). Buffers used to get a good separation are (A) distilled water with 0.1% TFA and (B) 0.1% TFA with Acetonitrile.
(§8) The G Assay was performed as described in EXAMPLE 3 with the exception that when a short competitor was used, 30 ul of competitor peptide (at twice the final concentration) was mixed with 30 ul biotinylated 20-mer (at twice the final concentration) and then added to the well.
(§9) PSD-95 and DLG-1 were incubated in the wells at 5 ug/ml as described in the G Assay protocol. Biotinylated 20-mer peptides used were 20 uM CLASP-2, 20 uM CD46, 10 uM CD95, and 10 uM KV1.3 (find sequences of peptides in TABLE 8). Competitors (unlabeled, short peptides) tested against each of the biotinylated peptides were 50 uM 8-mer of CD95, 100 uM 8-mer of CD46, 50 uM 8-mer of CLASP-2, and 1 mM and 500 uM acetylated 3-mer of CLASP-2. To deduce sequences, refer to TABLE 8. All absorbances were read at 450 nm after stopping TMB detection reaction at 30 min. Results were normalized in each group by dividing its A450 by the A450 of the PDZ/peptide binding in the absence of competitor and converting to percentage by multiplying by 100.

PSD-95 = target: T7, PSD-95 (Homo sapiens, UniProt P78352); test: as above; settings: for % binding: 100 = no competitor
T7 construct: protein spans from amino terminal end of first PDZ domain to carboxy-terminal end of third PDZ domain in frame with GST in vector; made in house; host or cells: E. coli DH5alpha
Source text: as §6, §7, §8, §9

[7] = target: T8, PDZ protein (GST-PDZ fusion) (Homo sapiens, UniProt Q9P202); test: G' assay (10 uM PL peptide), results of TABLE 7 and TABLE 12; settings: PDZ KIAA1526, PDZ Domain 1
T8 construct: made in house; host or cells: E. coli (DH5alpha, BL21 or JM109)
T8 sequence (Q9P202 1-907): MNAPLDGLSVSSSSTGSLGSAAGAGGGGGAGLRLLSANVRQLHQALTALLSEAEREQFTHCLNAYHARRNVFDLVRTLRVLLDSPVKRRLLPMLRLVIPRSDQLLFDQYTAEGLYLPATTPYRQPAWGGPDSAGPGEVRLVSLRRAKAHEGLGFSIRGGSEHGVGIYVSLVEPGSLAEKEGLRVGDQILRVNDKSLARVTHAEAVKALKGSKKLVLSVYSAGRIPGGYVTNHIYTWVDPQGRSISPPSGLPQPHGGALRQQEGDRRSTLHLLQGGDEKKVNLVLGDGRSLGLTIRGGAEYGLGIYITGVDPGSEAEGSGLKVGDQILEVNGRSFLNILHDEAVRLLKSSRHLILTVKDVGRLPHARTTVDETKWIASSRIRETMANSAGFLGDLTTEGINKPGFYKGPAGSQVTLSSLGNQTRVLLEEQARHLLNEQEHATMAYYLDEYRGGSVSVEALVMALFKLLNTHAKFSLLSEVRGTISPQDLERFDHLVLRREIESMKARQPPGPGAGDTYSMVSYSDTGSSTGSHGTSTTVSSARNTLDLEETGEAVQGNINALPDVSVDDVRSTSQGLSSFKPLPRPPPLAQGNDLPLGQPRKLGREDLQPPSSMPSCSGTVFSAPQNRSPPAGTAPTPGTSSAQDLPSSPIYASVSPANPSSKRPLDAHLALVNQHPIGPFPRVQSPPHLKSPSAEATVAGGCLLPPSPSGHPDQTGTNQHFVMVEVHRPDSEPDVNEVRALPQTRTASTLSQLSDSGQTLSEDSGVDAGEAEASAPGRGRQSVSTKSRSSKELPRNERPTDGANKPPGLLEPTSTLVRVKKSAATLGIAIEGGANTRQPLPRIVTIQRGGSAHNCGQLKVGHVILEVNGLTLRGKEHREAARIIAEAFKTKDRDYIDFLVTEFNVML
Source text: as §1, §2, §3, §4, §5

[8] = biotinylated 20-mer CD46 20 uM, competitor 50 uM
[9] = biotinylated 20-mer CD95 10 uM, competitor 50 uM
[10] = biotinylated 20-mer CLASP-2 20 uM, competitor 50 uM
[11] = biotinylated 20-mer CD46 20 uM, competitor 100 uM
[12] = biotinylated 20-mer CD95 10 uM, competitor 100 uM
[13] = biotinylated 20-mer CLASP-2 20 uM, competitor 100 uM
[14] = biotinylated 20-mer KV1.3 10 uM, competitor 100 uM
[15] = biotinylated 20-mer CD46 20 uM, competitor 500 uM
[16] = biotinylated 20-mer CD46 20 uM, competitor 1000 uM
[17] = biotinylated 20-mer CD95 10 uM, competitor 500 uM
[18] = biotinylated 20-mer CD95 10 uM, competitor 1000 uM
[19] = biotinylated 20-mer CLASP-2 20 uM, competitor 500 uM
[20] = biotinylated 20-mer CLASP-2 20 uM, competitor 1000 uM

T7 sequence (P78352 58-398 limits assumed): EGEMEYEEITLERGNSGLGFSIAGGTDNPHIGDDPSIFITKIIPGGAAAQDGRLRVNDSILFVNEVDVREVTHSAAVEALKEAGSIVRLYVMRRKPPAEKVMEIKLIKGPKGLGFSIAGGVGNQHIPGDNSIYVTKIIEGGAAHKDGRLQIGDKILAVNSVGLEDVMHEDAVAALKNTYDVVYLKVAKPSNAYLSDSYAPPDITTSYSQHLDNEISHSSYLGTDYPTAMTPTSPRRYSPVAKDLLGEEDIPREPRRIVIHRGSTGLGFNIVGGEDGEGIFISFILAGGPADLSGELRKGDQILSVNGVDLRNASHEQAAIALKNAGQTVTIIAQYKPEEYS
T3 sequence (Q6P0Q8 whole entry, the tested form may be a part): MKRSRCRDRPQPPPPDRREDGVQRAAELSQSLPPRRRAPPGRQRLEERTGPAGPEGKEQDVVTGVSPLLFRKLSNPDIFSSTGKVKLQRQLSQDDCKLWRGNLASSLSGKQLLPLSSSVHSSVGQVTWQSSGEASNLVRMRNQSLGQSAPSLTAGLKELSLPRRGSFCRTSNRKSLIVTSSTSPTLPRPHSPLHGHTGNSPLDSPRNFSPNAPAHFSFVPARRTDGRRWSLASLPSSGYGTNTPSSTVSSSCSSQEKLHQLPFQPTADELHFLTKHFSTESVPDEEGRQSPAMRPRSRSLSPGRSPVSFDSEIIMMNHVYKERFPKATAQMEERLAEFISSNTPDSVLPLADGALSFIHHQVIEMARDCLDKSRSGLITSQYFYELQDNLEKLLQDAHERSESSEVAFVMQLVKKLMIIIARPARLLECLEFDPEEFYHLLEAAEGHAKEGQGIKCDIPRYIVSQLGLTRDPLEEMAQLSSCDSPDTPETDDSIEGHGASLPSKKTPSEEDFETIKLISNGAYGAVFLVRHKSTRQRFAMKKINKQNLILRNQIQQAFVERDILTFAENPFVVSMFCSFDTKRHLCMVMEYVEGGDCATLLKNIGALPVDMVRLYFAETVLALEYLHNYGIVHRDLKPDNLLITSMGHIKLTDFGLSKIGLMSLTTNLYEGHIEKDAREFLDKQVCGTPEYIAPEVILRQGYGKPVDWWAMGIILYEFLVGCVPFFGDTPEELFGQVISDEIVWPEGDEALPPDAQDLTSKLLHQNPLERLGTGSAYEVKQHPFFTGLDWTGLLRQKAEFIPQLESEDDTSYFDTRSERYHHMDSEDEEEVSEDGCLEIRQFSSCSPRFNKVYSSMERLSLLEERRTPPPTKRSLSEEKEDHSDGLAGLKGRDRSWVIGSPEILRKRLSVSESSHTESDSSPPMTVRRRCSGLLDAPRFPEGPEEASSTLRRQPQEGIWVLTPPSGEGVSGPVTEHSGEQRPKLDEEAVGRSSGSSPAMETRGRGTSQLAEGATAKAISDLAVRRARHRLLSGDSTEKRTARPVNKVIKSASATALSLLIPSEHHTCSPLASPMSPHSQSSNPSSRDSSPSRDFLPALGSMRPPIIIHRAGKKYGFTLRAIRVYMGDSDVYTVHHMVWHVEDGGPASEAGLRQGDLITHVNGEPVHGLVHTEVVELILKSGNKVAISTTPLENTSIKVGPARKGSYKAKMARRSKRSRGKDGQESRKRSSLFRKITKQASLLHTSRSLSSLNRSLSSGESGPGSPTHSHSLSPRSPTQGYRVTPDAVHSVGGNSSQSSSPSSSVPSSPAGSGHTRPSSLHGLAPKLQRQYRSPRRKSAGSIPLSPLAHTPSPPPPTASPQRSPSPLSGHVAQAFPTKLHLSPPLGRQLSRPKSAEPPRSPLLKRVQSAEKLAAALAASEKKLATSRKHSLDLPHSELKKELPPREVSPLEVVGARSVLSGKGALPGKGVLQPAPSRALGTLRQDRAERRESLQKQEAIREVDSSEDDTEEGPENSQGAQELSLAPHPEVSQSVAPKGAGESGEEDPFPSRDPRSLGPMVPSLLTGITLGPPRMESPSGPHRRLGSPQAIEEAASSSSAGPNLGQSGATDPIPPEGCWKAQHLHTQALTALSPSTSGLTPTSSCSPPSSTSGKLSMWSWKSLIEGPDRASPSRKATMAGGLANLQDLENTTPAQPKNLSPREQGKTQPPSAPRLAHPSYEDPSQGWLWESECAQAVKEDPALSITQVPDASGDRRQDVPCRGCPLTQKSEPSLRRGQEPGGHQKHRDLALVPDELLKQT
T6 sequence (Q12959 224-546 limits assumed): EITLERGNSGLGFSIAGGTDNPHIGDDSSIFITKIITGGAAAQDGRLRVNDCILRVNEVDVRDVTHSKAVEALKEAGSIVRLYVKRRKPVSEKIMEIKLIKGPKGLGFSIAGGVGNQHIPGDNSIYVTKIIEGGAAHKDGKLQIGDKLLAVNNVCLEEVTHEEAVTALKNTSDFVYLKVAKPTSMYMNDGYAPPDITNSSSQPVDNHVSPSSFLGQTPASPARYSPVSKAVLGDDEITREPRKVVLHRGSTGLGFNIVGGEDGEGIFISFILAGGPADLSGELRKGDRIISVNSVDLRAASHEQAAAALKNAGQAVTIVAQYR
T2 sequence (Q13796 whole entry, the tested form may be a part): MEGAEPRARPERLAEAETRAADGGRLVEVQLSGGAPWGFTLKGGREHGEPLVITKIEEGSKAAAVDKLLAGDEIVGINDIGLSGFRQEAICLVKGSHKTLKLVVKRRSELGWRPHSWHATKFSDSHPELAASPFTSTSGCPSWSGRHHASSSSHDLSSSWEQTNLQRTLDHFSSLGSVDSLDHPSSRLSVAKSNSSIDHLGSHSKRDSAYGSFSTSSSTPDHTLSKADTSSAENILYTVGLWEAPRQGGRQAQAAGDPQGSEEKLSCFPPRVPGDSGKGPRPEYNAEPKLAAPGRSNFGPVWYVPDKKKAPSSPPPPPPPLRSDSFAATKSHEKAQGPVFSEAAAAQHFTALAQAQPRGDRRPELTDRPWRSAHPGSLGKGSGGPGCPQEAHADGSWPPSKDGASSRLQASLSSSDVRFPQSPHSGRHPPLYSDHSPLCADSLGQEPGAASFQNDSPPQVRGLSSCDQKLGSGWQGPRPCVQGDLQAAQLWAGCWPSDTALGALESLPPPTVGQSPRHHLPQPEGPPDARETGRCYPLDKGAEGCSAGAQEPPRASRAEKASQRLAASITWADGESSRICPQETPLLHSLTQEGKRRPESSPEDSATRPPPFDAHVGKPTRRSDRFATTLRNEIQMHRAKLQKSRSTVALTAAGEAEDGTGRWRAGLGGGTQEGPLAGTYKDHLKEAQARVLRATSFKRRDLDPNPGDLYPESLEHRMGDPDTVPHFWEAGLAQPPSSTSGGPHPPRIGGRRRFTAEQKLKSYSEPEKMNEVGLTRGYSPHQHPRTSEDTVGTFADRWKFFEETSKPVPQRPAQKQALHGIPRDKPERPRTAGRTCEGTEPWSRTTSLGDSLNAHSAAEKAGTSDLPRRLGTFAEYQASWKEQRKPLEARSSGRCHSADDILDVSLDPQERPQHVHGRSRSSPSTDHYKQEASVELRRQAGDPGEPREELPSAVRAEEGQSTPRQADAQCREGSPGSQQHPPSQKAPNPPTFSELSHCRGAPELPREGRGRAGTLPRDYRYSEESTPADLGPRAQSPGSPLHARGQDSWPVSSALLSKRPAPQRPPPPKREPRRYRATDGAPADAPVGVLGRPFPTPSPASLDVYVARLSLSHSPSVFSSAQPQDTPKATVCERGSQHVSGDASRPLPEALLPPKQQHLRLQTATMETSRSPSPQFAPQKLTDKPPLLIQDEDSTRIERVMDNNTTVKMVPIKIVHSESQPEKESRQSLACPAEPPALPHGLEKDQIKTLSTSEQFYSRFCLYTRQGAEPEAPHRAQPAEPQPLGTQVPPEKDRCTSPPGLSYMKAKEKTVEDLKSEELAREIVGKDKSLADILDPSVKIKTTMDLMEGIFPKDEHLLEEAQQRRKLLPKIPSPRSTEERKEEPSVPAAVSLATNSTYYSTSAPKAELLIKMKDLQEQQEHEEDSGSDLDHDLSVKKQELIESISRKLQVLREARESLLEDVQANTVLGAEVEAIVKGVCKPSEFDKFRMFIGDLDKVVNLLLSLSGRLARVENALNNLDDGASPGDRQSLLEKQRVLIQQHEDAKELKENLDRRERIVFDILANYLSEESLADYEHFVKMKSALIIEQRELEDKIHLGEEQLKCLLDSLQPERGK

Substance: ACM3_HUMAN (Biotin-QQYQQRQSVIFHKRAPEQAL)
Classification [1]: 1 (A450 nm 0-1)
Classification [2]: 1 (A450 nm 0-1)
Classification ([3]; PDZ KIAA807): 1 (A450 nm 0-1)
Classification ([3]; PDZ KIAA0807(S), PDZ Domain 1): 1 (A450 nm 0-1)

Substance: GTSDMKDLVGNIEQNEHSVI [Mannose Receptor]
Classification [2]: 1 (A450 nm 0-1)
Classification ([3]; PDZ KIAA807): 1 (A450 nm 0-1)
Classification ([3]; PDZ KIAA0807(S), PDZ Domain 1): 1 (A450 nm 0-1)
Classification ([5]; PDZ FLJ 00011, PDZ Domain 1): 1 (A450 nm 0-1)

Substance: MTSSSSVV [CLASP-2 8-mer, unlabeled peptide of the C-terminal 8 amino acids of CLASP-2]
% binding (DLG-1; [8]): 105%
% binding (DLG-1; [9]): 75%
% binding (DLG-1; [10]): 93%
% binding (PSD-95; [8]): 90%
% binding (PSD-95; [9]): 80%
% binding (PSD-95; [10]): 85%
% binding (PSD-95; biotinylated 20-mer KV1.3 10 uM, competitor 50 uM): 82%

Substance: REVKFTSL [CD46 8-mer, unlabeled peptide of the C-terminal 8 amino acids of CD46]
% binding (DLG-1; [11]): 90%
% binding (DLG-1; [12]): 68%
% binding (DLG-1; [13]): 90%
% binding (DLG-1; [14]): 63%
% binding (PSD-95; [11]): 95%
% binding (PSD-95; [12]): 65%
% binding (PSD-95; [13]): 81%
% binding (PSD-95; [14]): 71%

Substance: SEGGRPTRGPRLQGRRVTQV [HPV E6 52 (modified)]
Classification [4]: 0 (A450 nm 0, i.e., not found to interact)
Classification ([5]; PDZ BAI-1, PDZ Domain 2): 5 (A450 nm of 4 more than 2× repeated)

Substance: SGGNRARQERLQRRRETQV (Biotin-SGGNRARQERLQRRRETQV) [HPV E6 #18]
Classification [4]: 4 (A450 nm 3-4)
Classification ([5]; PDZ BAI-1, PDZ Domain 2): 5 (A450 nm of 4 more than 2× repeated)

Second part, led by results:

Classification [4]: 1 (A450 nm 0-1)
Substance: GPDGIITVNDFTQNPRVQLE (Biotin-GPDGIITVNDFTQNPRVQLE) [ropporin]

Classification ([3]; PDZ KIAA807): 5 (A450 nm of 4 more than 2× repeated)
Classification ([3]; PDZ KIAA0807(S), PDZ Domain 1): 5 (A450 nm of 4 more than 2× repeated)
Classification [6]: 2 (A450 nm 1-2)
Substance: KDSRPSFVGSSSGHTSTTL (Biotin-KDSRPSFVGSSSGHTSTTL) [CDw128B]
Classification ([5]; PDZ SHANK, PDZ Domain 1): 3 (A450 nm 2-3)

Classification [7]: 1 (A450 nm 0-1)
Substance: SSPTYRALLLQGPSQSSSEA (Biotin-SSPTYRALLLQGPSQSSSEA)

% binding (DLG-1; [15]): 72%
% binding (DLG-1; [16]): 45%
% binding (DLG-1; [17]): 51%
% binding (DLG-1; [18]): 46%
% binding (DLG-1; [19]): 61%
% binding (DLG-1; [20]): 59%
% binding (PSD-95; [15]): 75%
% binding (PSD-95; [16]): 59%
% binding (PSD-95; [17]): 55%
% binding (PSD-95; [18]): 55%
% binding (PSD-95; [19]): 82%
% binding (PSD-95; [20]): 63%
% binding (PSD-95; biotinylated 20-mer KV1.3 10 uM, competitor 500 uM): 81%
% binding (PSD-95; biotinylated 20-mer KV1.3 10 uM, competitor 1000 uM): 50%
reduction of labeled ligand binding (PSD-95; competitor 1 mM, 50-100-fold excess, summary of TABLE 6, PDZ not given): up to 50%
Substance: SVV [CLASP-2 3-mer, acetylated peptide of the C-terminal 3 amino acids of CLASP-2]
